T1: Lin28B ZKD (Homo sapiens, UniProt Q6ZN17 110-174)
T1 sequence: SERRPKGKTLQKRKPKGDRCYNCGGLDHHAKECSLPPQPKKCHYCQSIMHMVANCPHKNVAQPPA


What was measured:
Lin28B ZKD [1] = target: T1, Lin28B ZKD; test: fluorescence polarization; 1 nM probe, 1 nM-50 uM protein; dose-dependent increase; EMSA: 20 mM HEPES-NaOH pH 7.4, 2 mM DTT, 3 mM MgCl2, 0.05% NP-40, protease inhibitors, 0.1 ug poly[dI:dC], 30 min 37 C (Methods 300 nM probe, legends 10 nM); FP: 30 uL, room temperature, 20 min, buffer not stated; conditions: protein: recombinant; tags: His
Lin28B ZKD [2] = target: T1, Lin28B ZKD; test: competition; fluorescence polarization; 1 nM-50 uM unlabeled oligo vs 1 nM FAM probe, 10 uM protein; dose-dependent reduction; EMSA: 20 mM HEPES-NaOH pH 7.4, 2 mM DTT, 3 mM MgCl2, 0.05% NP-40, protease inhibitors, 0.1 ug poly[dI:dC], 30 min 37 C (Methods 300 nM probe, legends 10 nM); FP: 30 uL, room temperature, 20 min, buffer not stated; conditions: protein: recombinant; tags: His

Binder	binding result (Lin28B ZKD [1])	binding result (Lin28B ZKD [2])
UUAGGGCACGAGAUUUUGCCCACAAGGAGUU (structured_RNA) [FAM-Let-7 probe]	binds	–
UUAGGGCACGAGAUUUUGCCCACAAGGAGUU (structured_RNA) [non-labeled Let-7 oligo (FP competitor)]	–	binds

— publication PMC9688808, “Discovery of Novel Lin28 Inhibitors to Suppress Cancer Cell Stemness” (Cancers, 2022)
